Measurements from patent publication US12091446 (NATIONAL TECHNOLOGY AND ENGINEERING SOLUTIONS OF SANDIA, dated 2024).
Where two headings read alike, the source gives them in different places.

B1: AP1D4 Nb-huFc (Fc fusion)
chain: EVQLQASGGGFVQPGGSLRLSCAASGHTFDAHRMGWFRQAPGKEREFVSAISSWGQSSTYYADSVKGRFTISRDNSKNTVYLQMNSLRAEDTATYYCAQTDEGNQYVYWGQGTQVTVSS
B2: AP1B6 Nb-huFc (Fc fusion)
chain: EVQLQASGGGFVQPGGSLRLSCAASGSAFQIYAMGWFRQAPGKEREFVSAISSTDSETDHYADSVKGRFTISRDNSKNTVYLQMNSLRAEDTATYYCAVNGFDYAHSKAGPQVYWGQGTQVTVSS
B3: BP1A10 Nb-huFc (Fc fusion)
chain: EVQLQASGGGFVQPGGSLRLSCAASGQPSDRYIMGWFRQAPGKEREFVSAISQGAANKTAYADSVKGRFTISRDNSKNTVYLQMNSLRAEDTATYYCATHFNWQNYSYWGQGTQVTVSS
B4: KP1B5 Nb-huFc (Fc fusion)
chain: EVQLQASGGGFVQPGGSLRLSCAASGFTFDWSAMGWFRQAPGKEREFVSAISSSTSESTTYADSVKGRFTISRDNSKNTVYLQMNSLRAEDTATYYCATYYGGKTVEQDFYWGQGTQVTVSS
B5: AP1A5 Nb-huFc (Fc fusion)
chain: EVQLQASGGGFVQPGGSLRLSCAASGSTASHYTMGWFRQAPGKEREFVSAISSGRDHAKQYADSVKGRFTISRDNSKNTVYLQMNSLRAEDTATYYCAYEEINATQKDTLYWGQGTQVTVSS
B6: BP1B1 Nb-huFc (Fc fusion)
chain: EVQLQASGGGFVQPGGSLRLSCAASGRTFSGYIMGWFRQAPGKEREFVSAISQGDSYASYYADSVKGRFTISRDNSKNTVYLQMNSLRAEDTATYYCALYDINTVPYYWGQGTQVTVSS
B7: DP4F2 Nb-huFc (Fc fusion)
chain: EVQLQASGGGFVQPGGSLRLSCAASGTTYSERVMGWFRQAPGKEREFVSAISSGQSDQTYYYADSVKGRFTISRDNSKNTVYLQMNSLRAEDTATYYCAPFAGDANLPREWYWGQGTQVTVSSA
B8: BP2A3 Nb-huFc (Fc fusion)
chain: EVQLQASGGGFVQPGGSLRLSCAASGRTFSAYSMGWFRQAPGKEREFVSAISAGDGAASYYADSVKGRFTISRDNSKNTVYLQMNSLRAEDTATYYCAHYYTTSATLDYAYWGQGTQVTVSS
B9: KP2C6 Nb-huFc (Fc fusion)
chain: EVQLQASGGGFVQPGGSLRLSCAASGRTFTSFHMGWFRQAPGKEREFVSAISSGDDGTQYYADSVKGRFTISRDNSKNTVYLQMNSLRAEDTATYYCAAYTTTTVPQYWGQGTQVTVSS
B10: BP2A6 Nb-huFc (Fc fusion)
chain: EVQLQASGGGFVQPGGSLRLSCAASGQTFSHYIMGWFRQAPGKEREFVSAISAGQGHATYYADSVKGRFTISRDNSKNTVYLQMNSLRAEDTATYYCAKYQDTIAPLYWGQGTQVTVSS
B11: BP2H9 Nb-huFc (Fc fusion)
chain: EVQLQASGGGFVQPGGSLRLSCAASGQTFTHVPMGWFRQAPGKEREFVSAISDTSGFETYYADSVKGRFTISRDNSKNTVYLQMNSLRAEDTATYYCAWAYDQFNWNYWGQGTQVTVSS
B12: KP1C9 Nb-huFc (Fc fusion)
chain: EVQLQASGGGFVQPGGSLRLSCAASGRTFDAYSMGWFRQAPGKEREFVSAISSWSDDWTAYADSVKGRFTISRDNSKNTVYLQMNSLRAEDTATYYCALQNTKEDRLYWGQGTQVTVSS
B13: AP1C3 Nb-huFc (Fc fusion)
chain: EVQLQASGGGFVQPGGSLRLSCAASGRTYRGYSMGWFRQAPGKEREFVSAISSWSDDWTAYADSVKGRFTISRDNSKNTVYLQMNSLRAEDTATYYCAWQYIDEIQYYWGQGTQVTVSS

Tests used:
[1] = target: T1, SARS-COV-2 Wuhan (WT) RBD (SARS-COV-2, UniProt P0DTC2 319-541)
[2] = target: T2, SARS-COV-2 spike, Beta variant (B.1.351) (SARS-COV-2, UniProt P0DTC2 14-1273); assay: cell-based or functional assay
[3] = target: T3, SARS-COV-2 spike, Gamma variant (P.1) (SARS-COV-2, UniProt P0DTC2 14-1273); assay: cell-based or functional assay
[4] = target: T4, SARS-COV-2 spike, Delta variant (B.1.617.2) (SARS-COV-2, UniProt P0DTC2 14-1273); assay: cell-based or functional assay
[5] = target: T5, SARS-COV-2 spike, Lambda variant (C.37) (SARS-COV-2, UniProt P0DTC2 14-1273); assay: cell-based or functional assay
[6] = target: T6, SARS-COV-2 spike, Mu variant (B.1.621) (SARS-COV-2, UniProt P0DTC2 14-1273); assay: cell-based or functional assay
[7] = target: T7, SARS-COV-2 Delta RBD (SARS-COV-2, UniProt P0DTC2 319-541); assay: ELISA titration (A450 against Nb-hFc ug/mL) on SARS-CoV-2 Delta RBD
T7 construct: domain: RBD; also called SARS-COV-2 Delta RBD variant

[8] = target: T2, SARS-COV-2 spike, Beta variant (B.1.351); assay: cell-based or functional assay; remark: listed apart in the source
[9] = target: T3, SARS-COV-2 spike, Gamma variant (P.1); assay: cell-based or functional assay; remark: listed apart in the source
[10] = target: T4, SARS-COV-2 spike, Delta variant …; assay: cell-based or functional assay; remark: listed apart in the source
[11] = target: T5, SARS-COV-2 spike, Lambda variant (C.37); assay: cell-based or functional assay; remark: listed apart in the source
[12] = target: T6, SARS-COV-2 spike, Mu variant (B.1.621); assay: cell-based or functional assay; remark: listed apart in the source
[13] = target: T1, SARS-COV-2 Wuhan (WT) RBD; remark: listed apart in the source
[14] = target: T8, SARS-COV-2 spike, Omicron variant (BA.1) (SARS-COV-2, UniProt P0DTC2 14-1273); assay: cell-based or functional assay
[15] = target: T7, SARS-COV-2 Delta RBD
[16] = target: T1, SARS-COV-2 Wuhan (WT) RBD; remark: listed apart in the source
[17] = target: T8, SARS-COV-2 spike, Omicron variant (BA.1); assay: cell-based or functional assay; remark: listed apart in the source

Row | Binder | Kd [1] | EC50, neutralization of spike pseudotyped virus [2] | EC50, neutralization of spike pseudotyped virus [3] | EC50, neutralization of spike pseudotyped virus [4] | EC50, neutralization of spike pseudotyped virus [5] | EC50, neutralization of spike pseudotyped virus [6] | binding result [7] | EC50, neutralization of spike pseudotyped virus [8] | EC50, neutralization of spike pseudotyped virus [9] | EC50, neutralization of spike pseudotyped virus [10] | EC50, neutralization of spike pseudotyped virus [11] | EC50, neutralization of spike pseudotyped virus [12] | Kd [13] | EC50, neutralization of spike pseudotyped virus [14] | Kd [15] | Kd [16] | EC50, neutralization of spike pseudotyped virus [17]
1 | B1 | 1.09 nM | 627 nM | 13.5 nM | 758 nM | 490 nM | 1.92 nM |  |  |  |  |  |  |  |  |  |  | 
2 | B2 | 0.585 nM | 0.12 nM | 0.26 nM | 586 nM | 414 nM | 1.54 nM | no binding (tested: 10 ug/mL) |  |  |  |  |  |  |  |  |  | 
3 | B3 | 0.548 nM | 4.32 nM | 3.95 nM |  |  | 26.1 nM |  |  |  |  |  |  |  |  |  |  | 
4 | B4 |  |  |  |  |  |  |  | 482 nM | 214 nM | 324 nM | 472 nM | 367 nM |  |  |  |  | 
5 | B5 | 1.28 nM | 198 nM | 533 nM | 73.3 nM | 79.1 nM | 7.18 nM | no binding (tested: 10 ug/mL) |  |  |  |  |  |  |  |  |  | 
6 | B6 | 0.266 nM |  |  |  |  |  | no binding (tested: 10 ug/mL) | 3.5 nM | 3.68 nM |  |  | 6.97 nM | 371 nM | 403 nM |  |  | 
7 | B7 | 9.51 nM |  |  |  |  |  |  |  |  | 26.8 nM |  | 25.1 nM |  |  | 1.91 nM |  | 
8 | B8 | 0.315 nM |  |  |  |  |  | no binding (tested: 10 ug/mL) | 4.44 nM | 3.73 nM |  |  | 466 nM |  |  |  |  | 
9 | B9 | 4.46 nM |  |  |  |  |  |  | 411 nM | 408 nM | 18.3 nM | 612 nM | 305 nM |  |  | 62.6 nM |  | 
10 | B10 | 0.0766 nM | 0.34 nM | 0.63 nM | 875 nM | 883 nM | 2.53 nM | no binding (tested: 10 ug/mL) |  |  |  |  |  |  |  |  | 149 nM | 43.3 nM
11 | B11 |  |  |  |  |  |  |  | 0.21 nM | 0.26 nM |  |  | 922 nM |  |  |  |  | 
12 | B12 | 0.119 nM |  |  |  |  |  |  | 203 nM | 80.2 nM | 1.22 nM | 0.13 nM | 2.02 nM |  |  | 25.5 nM |  | 
13 | B13 | 0.133 nM | 338 nM | 1.07 nM | 191 nM | 0.02 nM | 0.83 nM |  |  |  |  |  |  |  |  | 33.3 nM |  | 
